Data on two proteins can be found in paper PMC10974336, “Characterization of a Novel Hyperthermophilic GH1 β-Glucosidase from Acidilobus sp. and Its Application in the Hydrolysis of Soybean Isoflavone Glycosides” (Microorganisms, 2024).

In general, Km refers to the substrate concentration at which the rate is half of its maximum. The term Vmax denotes the rate approached at saturating substrate. For orientation: kcat means the maximal rate divided by the concentration of active sites. The kcat/Km is the turnover number divided by the Michaelis constant.

Substrate in series [1]: O=[N+]([O-])c1ccc(O[C@@H]2O[C@H](CO)[C@@H](O)[C@H](O)[C@H]2O)cc1
Kind of series: cells, lysate or membranes. It is filed as biochemical, Acidilobus sp. 7A. The following applies: crude enzyme, mutant BglAcN, 30 bp deletion, printed as nine residues (…) at positions 298 to 307, pH 5.0.

Substrate in the series “purified protein”: O=[N+]([O-])c1ccc(O[C@@H]2O[C@H](CO)[C@@H](O)[C@H](O)[C@H]2O)cc1
Kind of series: purified protein. It is filed as biochemical, Acidilobus sp. 7A. Conditions: pH 5.0 sodium citrate, 100 °C, pNPG 0.2 to 2 mM.

B1: BglAc (Acidilobus sp. 7A; DEL298-307) (protein)
chain: MTVSFPKGFLFGWSQAGFQSEMGTPGSEDPNSDWYAWVHDRENIASGLVSGDLPENGPGYWGNYRRFHDAAQAMGLSAARIGVEWSRIFPKPTFDVKVHADVRGEEVASVDVSEQALEQLDRLANREAVNHYREMFSDLRSRGITFILNLYHWPLPLWLHDPIAIRRGNLSAPSGWLDVRAVVEFAKFAAYVAWKLDDLVYMYSTMNEPNVVWSHGFTQPKSGFPPGYLCFECSGKAMKNLLQAHARAYDIVKSMTKKPVGVIYATADWTPLTESEADRAAAEAAKAADRWAFFDMLGRLDWIGVNYYSRLVVRAGRSGFQVIPGYGFACEPNSVSPAGRPCSDFGWEFYPEGLYHALKDYWERYHLPLMVTENGAADEGDYLRPYYLVSHIYQVHRAMQEEVNVTGYLHWSLADNYEWASGFGKRFGLLMVDYETKRLYWRPSAFIYREIAKNNAITDEVEHLNRVPPLKPLRK
notes: N-terminal 6xHis tag, pET-30a(+) NdeI/EcoRI, E. coli BL21(DE3), Ni-NTA; residues Glu208, Glu383, Gln19, His152, Asn207, Glu428, Trp429
For B1, in series [1], the Km was determined as 8.58 mM, the Vmax is 288 µmol/min/mg, the kcat amounted to 260 s⁻¹ and the kcat/Km amounted to 30300 M⁻¹ s⁻¹.

B2: BglAc (Acidilobus sp. 7A) (protein)
chain: MTVSFPKGFLFGWSQAGFQSEMGTPGSEDPNSDWYAWVHDRENIASGLVSGDLPENGPGYWGNYRRFHDAAQAMGLSAARIGVEWSRIFPKPTFDVKVHADVRGEEVASVDVSEQALEQLDRLANREAVNHYREMFSDLRSRGITFILNLYHWPLPLWLHDPIAIRRGNLSAPSGWLDVRAVVEFAKFAAYVAWKLDDLVYMYSTMNEPNVVWSHGFTQPKSGFPPGYLCFECSGKAMKNLLQAHARAYDIVKSMTKKPVGVIYATADWTPLTESEADRAAAEAAKAADRWAFFDMLSKGSPRDDLRGRLDWIGVNYYSRLVVRAGRSGFQVIPGYGFACEPNSVSPAGRPCSDFGWEFYPEGLYHALKDYWERYHLPLMVTENGAADEGDYLRPYYLVSHIYQVHRAMQEEVNVTGYLHWSLADNYEWASGFGKRFGLLMVDYETKRLYWRPSAFIYREIAKNNAITDEVEHLNRVPPLKPLRK
notes: as for B1
With B2, in “purified protein”, the Km worked out at 3.41 mM, the Vmax was determined as 474 µmol/min/mg, the kcat was 418 s⁻¹ and the kcat/Km amounted to 123000 M⁻¹ s⁻¹.
